Data published in paper PMC5861439 (Nucleic Acids Research, 2017).

Assays:
Asf1–H3:H4 complex = experiment: NMR 13C-HMQC; type: binding, Asf1 Saccharomyces cerevisiae; histones Xenopus laevis; settings: Rtt109 added to Asf1–H3:H4–Vps75_2; 50 mM sodium citrate pH 6.5, 150 mM NaCl, 5 mM BME, 850 MHz, 298 K
Rtt109 = settings: ref [13–14],[21–22]; cited from earlier work
[1] = system: 15N-labeled H3 in the H3:H4 complex; experiment: NMR 15N-HSQC CSPs of 15N-labeled histone H3 in the H3:H4 complex; type: binding, Xenopus laevis; settings: Rtt109 added to Asf1–H3:H4 (15N-labeled H3); 50 mM sodium citrate pH 6.2, 150 mM NaCl, 5 mM BME, 600 MHz, 298 K

Rtt109: full-length Saccharomyces cerevisiae Rtt109, fungal histone acetyltransferase
Asf1 CSPs upon addition of Rtt109 in the presence of Vps75 (in words) (Asf1–H3:H4 complex): large Asf1 CSPs | acetyltransferase activity alone / activation of Rtt109 by chaperones (in words) (Rtt109): very low acetyltransferase activity | competition with the H3 tail for Asf1 (in words) [1]: can out-compete the H3 tail for the same interaction surface on Asf1

Asf1: Saccharomyces cerevisiae Asf1 (2–169), histone-specific chaperone
acetyltransferase activity alone / activation of Rtt109 by chaperones (in words) (Rtt109): strongly activated

Vps75_2: Vps75 homodimer, histone chaperone (Saccharomyces cerevisiae)
acetyltransferase activity alone / activation of Rtt109 by chaperones (in words) (Rtt109): strongly activated
